US20260209293A1 (Novo Nordisk, published 2026)
One block for each binder: values may come before it. *1 amine or outer side, *2 acyl side, *3 side chain or, on linkers, in order; H or OH if unused. The star is where a group is joined. C20 diacid = O=C(O)CCCCCCCCCCCCCCCCCCC(=O)*; C18 diacid = O=C(O)CCCCCCCCCCCCCCCCC(=O)*; γGlu = O=C(O)[C@H](CCC(=O)[*:2])N[*:1]

Assays:
[1] = molecular target: T1, human calcitonin receptor (a) (human, UniProt P30988 25-474); experiment: cell-based or functional assay
T1 sequence (looked up): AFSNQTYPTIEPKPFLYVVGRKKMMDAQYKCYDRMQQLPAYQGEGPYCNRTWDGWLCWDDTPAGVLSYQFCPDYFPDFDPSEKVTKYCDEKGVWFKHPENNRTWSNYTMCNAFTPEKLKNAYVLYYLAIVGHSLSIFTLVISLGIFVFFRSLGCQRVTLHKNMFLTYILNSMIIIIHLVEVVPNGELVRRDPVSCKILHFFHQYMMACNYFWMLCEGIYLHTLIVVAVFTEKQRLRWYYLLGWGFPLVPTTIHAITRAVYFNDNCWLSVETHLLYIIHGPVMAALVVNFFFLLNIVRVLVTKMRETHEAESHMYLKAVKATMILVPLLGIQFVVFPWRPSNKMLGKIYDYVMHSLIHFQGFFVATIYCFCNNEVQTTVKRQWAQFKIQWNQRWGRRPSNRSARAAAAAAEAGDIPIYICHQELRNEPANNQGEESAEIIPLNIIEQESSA

[2] = molecular target: T2, human amylin-3(a) receptor (human, UniProt P30988 25-474; O60896 24-148); experiment: cell-based or functional assay
T2 sequence (looked up) 1: T1 sequence (looked up)
T2 sequence (looked up) 2: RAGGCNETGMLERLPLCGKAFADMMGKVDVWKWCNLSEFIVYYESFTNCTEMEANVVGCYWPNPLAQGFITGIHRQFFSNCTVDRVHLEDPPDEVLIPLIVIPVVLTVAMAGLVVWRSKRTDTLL

B1: N^1-[(4S)-4-carboxy-4-(17-carboxyheptadecanoylamino)butanoyl]-[Ala1,Gly2,Glu3,Leu4,Ser5,Ala7,Gln8,Glu14,His17,Asp21, Pro22,Pro27,Asp31, Pro34,Asp35, … (peptide)
peptide: {C18 diacid-γGlu}-AGELSTAQTQRLAEFLHHSSDPFGAIPSSTDVGPDTP-NH2
SMILES: CC[C@H](C)[C@H](NC(=O)[C@H](C)NC(=O)CNC(=O)[C@H](Cc1ccccc1)NC(=O)[C@@H]1CCCN1C(=O)[C@H](CC(=O)O)NC(=O)[C@H](CO)NC(=O)[C@H](CO)NC(=O)[C@H](Cc1c[nH]cn1)NC(=O)[C@H](Cc1c[nH]cn1)NC(=O)[C@H](CC(C)C)NC(=O)[C@H](Cc1ccccc1)NC(=O)[C@H](CCC(=O)O)NC(=O)[C@H](C)NC(=O)[C@H](CC(C)C)NC(=O)[C@H](CCCNC(=N)N)NC(=O)[C@H](CCC(N)=O)NC(=O)[C@@H](NC(=O)[C@H](CCC(N)=O)NC(=O)[C@H](C)NC(=O)[C@@H](NC(=O)[C@H](CO)NC(=O)[C@H](CC(C)C)NC(=O)[C@H](CCC(=O)O)NC(=O)CNC(=O)[C@H](C)NC(=O)CC[C@H](NC(=O)CCCCCCCCCCCCCCCCC(=O)O)C(=O)O)[C@@H](C)O)[C@@H](C)O)C(=O)N1CCC[C@H]1C(=O)N[C@@H](CO)C(=O)N[C@@H](CO)C(=O)N[C@H](C(=O)N[C@@H](CC(=O)O)C(=O)N[C@H](C(=O)NCC(=O)N1CCC[C@H]1C(=O)N[C@@H](CC(=O)O)C(=O)N[C@H](C(=O)N1CCC[C@H]1C(N)=O)[C@@H](C)O)C(C)C)[C@@H](C)O
hCalcR potency, EC50 (pM); CRE-luciferase reporter in BHK cells [1]: 1.58 pM
hAmyR3 potency, EC50 (pM); CRE-luciferase reporter in BHK cells [2]: 2.43 pM

B4: N^1-[(4S)-4-carboxy-4-(17-carboxyheptadecanoylamino)butanoyl]-[Ala1,Gly2,Ser3,Leu4,Ser5,Ala7,Gln8,Glu14,His17,Asp21, Pro22,Pro27,Asp31, Pro34,Asp35, … (peptide)
peptide: {C18 diacid-γGlu}-AGSLSTAQTQRLAEFLHHSSDPFGAIPSSTDVGPDTP-NH2
SMILES: CC[C@H](C)[C@H](NC(=O)[C@H](C)NC(=O)CNC(=O)[C@H](Cc1ccccc1)NC(=O)[C@@H]1CCCN1C(=O)[C@H](CC(=O)O)NC(=O)[C@H](CO)NC(=O)[C@H](CO)NC(=O)[C@H](Cc1c[nH]cn1)NC(=O)[C@H](Cc1c[nH]cn1)NC(=O)[C@H](CC(C)C)NC(=O)[C@H](Cc1ccccc1)NC(=O)[C@H](CCC(=O)O)NC(=O)[C@H](C)NC(=O)[C@H](CC(C)C)NC(=O)[C@H](CCCNC(=N)N)NC(=O)[C@H](CCC(N)=O)NC(=O)[C@@H](NC(=O)[C@H](CCC(N)=O)NC(=O)[C@H](C)NC(=O)[C@@H](NC(=O)[C@H](CO)NC(=O)[C@H](CC(C)C)NC(=O)[C@H](CO)NC(=O)CNC(=O)[C@H](C)NC(=O)CC[C@H](NC(=O)CCCCCCCCCCCCCCCCC(=O)O)C(=O)O)[C@@H](C)O)[C@@H](C)O)C(=O)N1CCC[C@H]1C(=O)N[C@@H](CO)C(=O)N[C@@H](CO)C(=O)N[C@H](C(=O)N[C@@H](CC(=O)O)C(=O)N[C@H](C(=O)NCC(=O)N1CCC[C@H]1C(=O)N[C@@H](CC(=O)O)C(=O)N[C@H](C(=O)N1CCC[C@H]1C(N)=O)[C@@H](C)O)C(C)C)[C@@H](C)O
hCalcR potency, EC50 (pM); CRE-luciferase reporter in BHK cells [1]: 1.49 pM
hAmyR3 potency, EC50 (pM); CRE-luciferase reporter in BHK cells [2]: 1.44 pM

Next, values leading:

hCalcR potency, EC50 (pM); CRE-luciferase reporter in BHK cells [1]: 1.99 pM
hAmyR3 potency, EC50 (pM); CRE-luciferase reporter in BHK cells [2]: 1.88 pM
B2: N^1-[(4S)-4-carboxy-4-(17-carboxyheptadecanoylamino)butanoyl]-[Ala1,Ser2,Leu4,Ala7,Gln8,Glu14,His17,Asp21,Pro22,Pro27,Asp31, Pro34,Asp35,Pro37]-human amylin (peptide)
peptide: {C18 diacid-γGlu}-ASNLATAQTQRLAEFLHHSSDPFGAIPSSTDVGPDTP-NH2
SMILES: CC[C@H](C)[C@H](NC(=O)[C@H](C)NC(=O)CNC(=O)[C@H](Cc1ccccc1)NC(=O)[C@@H]1CCCN1C(=O)[C@H](CC(=O)O)NC(=O)[C@H](CO)NC(=O)[C@H](CO)NC(=O)[C@H](Cc1c[nH]cn1)NC(=O)[C@H](Cc1c[nH]cn1)NC(=O)[C@H](CC(C)C)NC(=O)[C@H](Cc1ccccc1)NC(=O)[C@H](CCC(=O)O)NC(=O)[C@H](C)NC(=O)[C@H](CC(C)C)NC(=O)[C@H](CCCNC(=N)N)NC(=O)[C@H](CCC(N)=O)NC(=O)[C@@H](NC(=O)[C@H](CCC(N)=O)NC(=O)[C@H](C)NC(=O)[C@@H](NC(=O)[C@H](C)NC(=O)[C@H](CC(C)C)NC(=O)[C@H](CC(N)=O)NC(=O)[C@H](CO)NC(=O)[C@H](C)NC(=O)CC[C@H](NC(=O)CCCCCCCCCCCCCCCCC(=O)O)C(=O)O)[C@@H](C)O)[C@@H](C)O)C(=O)N1CCC[C@H]1C(=O)N[C@@H](CO)C(=O)N[C@@H](CO)C(=O)N[C@H](C(=O)N[C@@H](CC(=O)O)C(=O)N[C@H](C(=O)NCC(=O)N1CCC[C@H]1C(=O)N[C@@H](CC(=O)O)C(=O)N[C@H](C(=O)N1CCC[C@H]1C(N)=O)[C@@H](C)O)C(C)C)[C@@H](C)O

hCalcR potency, EC50 (pM); CRE-luciferase reporter in BHK cells [1]: 1.81 pM
hAmyR3 potency, EC50 (pM); CRE-luciferase reporter in BHK cells [2]: 1.68 pM
B3: N^1-[(4S)-4-carboxy-4-(19-carboxynonadecanoylamino)butanoyl]-[Ala1,Gly2, His3,Leu4,Ser5,Ala7,Gln8,Glu14,His17,Asp21, Pro22, Pro27,Asp31, Pro34,Asp35, … (peptide)
peptide: {C20 diacid-γGlu}-AGHLSTAQTQRLAEFLHHSSDPFGAIPSSTDVGPDTP-NH2
SMILES: CC[C@H](C)[C@H](NC(=O)[C@H](C)NC(=O)CNC(=O)[C@H](Cc1ccccc1)NC(=O)[C@@H]1CCCN1C(=O)[C@H](CC(=O)O)NC(=O)[C@H](CO)NC(=O)[C@H](CO)NC(=O)[C@H](Cc1c[nH]cn1)NC(=O)[C@H](Cc1c[nH]cn1)NC(=O)[C@H](CC(C)C)NC(=O)[C@H](Cc1ccccc1)NC(=O)[C@H](CCC(=O)O)NC(=O)[C@H](C)NC(=O)[C@H](CC(C)C)NC(=O)[C@H](CCCNC(=N)N)NC(=O)[C@H](CCC(N)=O)NC(=O)[C@@H](NC(=O)[C@H](CCC(N)=O)NC(=O)[C@H](C)NC(=O)[C@@H](NC(=O)[C@H](CO)NC(=O)[C@H](CC(C)C)NC(=O)[C@H](Cc1c[nH]cn1)NC(=O)CNC(=O)[C@H](C)NC(=O)CC[C@H](NC(=O)CCCCCCCCCCCCCCCCCCC(=O)O)C(=O)O)[C@@H](C)O)[C@@H](C)O)C(=O)N1CCC[C@H]1C(=O)N[C@@H](CO)C(=O)N[C@@H](CO)C(=O)N[C@H](C(=O)N[C@@H](CC(=O)O)C(=O)N[C@H](C(=O)NCC(=O)N1CCC[C@H]1C(=O)N[C@@H](CC(=O)O)C(=O)N[C@H](C(=O)N1CCC[C@H]1C(N)=O)[C@@H](C)O)C(C)C)[C@@H](C)O

hCalcR potency, EC50 (pM); CRE-luciferase reporter in BHK cells [1]: 1.44 pM
hAmyR3 potency, EC50 (pM); CRE-luciferase reporter in BHK cells [2]: 1.5 pM
B5: N^1-[(4S)-4-carboxy-4-(17-carboxyheptadecanoylamino)butanoyl]-[Ala1,Ser2,His3,Leu4,Ser5,Ala7,Gln8,Glu14,His17,Asp21,Pro22,Pro27,Asp31,Pro34,Asp35, Pro37]-human … (peptide)
peptide: {C18 diacid-γGlu}-ASHLSTAQTQRLAEFLHHSSDPFGAIPSSTDVGPDTP-NH2
SMILES: CC[C@H](C)[C@H](NC(=O)[C@H](C)NC(=O)CNC(=O)[C@H](Cc1ccccc1)NC(=O)[C@@H]1CCCN1C(=O)[C@H](CC(=O)O)NC(=O)[C@H](CO)NC(=O)[C@H](CO)NC(=O)[C@H](Cc1c[nH]cn1)NC(=O)[C@H](Cc1c[nH]cn1)NC(=O)[C@H](CC(C)C)NC(=O)[C@H](Cc1ccccc1)NC(=O)[C@H](CCC(=O)O)NC(=O)[C@H](C)NC(=O)[C@H](CC(C)C)NC(=O)[C@H](CCCNC(=N)N)NC(=O)[C@H](CCC(N)=O)NC(=O)[C@@H](NC(=O)[C@H](CCC(N)=O)NC(=O)[C@H](C)NC(=O)[C@@H](NC(=O)[C@H](CO)NC(=O)[C@H](CC(C)C)NC(=O)[C@H](Cc1c[nH]cn1)NC(=O)[C@H](CO)NC(=O)[C@H](C)NC(=O)CC[C@H](NC(=O)CCCCCCCCCCCCCCCCC(=O)O)C(=O)O)[C@@H](C)O)[C@@H](C)O)C(=O)N1CCC[C@H]1C(=O)N[C@@H](CO)C(=O)N[C@@H](CO)C(=O)N[C@H](C(=O)N[C@@H](CC(=O)O)C(=O)N[C@H](C(=O)NCC(=O)N1CCC[C@H]1C(=O)N[C@@H](CC(=O)O)C(=O)N[C@H](C(=O)N1CCC[C@H]1C(N)=O)[C@@H](C)O)C(C)C)[C@@H](C)O

hCalcR potency, EC50 (pM); CRE-luciferase reporter in BHK cells [1]: 1.68 pM
hAmyR3 potency, EC50 (pM); CRE-luciferase reporter in BHK cells [2]: 2.18 pM
B6: N^1-[(4S)-4-carboxy-4-[[(4S)-4-carboxy-4-(17-carboxyheptadecanoylamino)butanoyl]amino]butanoyl]-[Ala1,Ser2,His3,Leu4,Ser5,Ala7,Gln8,Glu14,His17,Asp21, … (peptide)
peptide: {C18 diacid-γGlu-γGlu}-ASHLSTAQTQRLAEFLHHSSDPFGAIPSSTDVGPDTP-NH2
SMILES: CC[C@H](C)[C@H](NC(=O)[C@H](C)NC(=O)CNC(=O)[C@H](Cc1ccccc1)NC(=O)[C@@H]1CCCN1C(=O)[C@H](CC(=O)O)NC(=O)[C@H](CO)NC(=O)[C@H](CO)NC(=O)[C@H](Cc1c[nH]cn1)NC(=O)[C@H](Cc1c[nH]cn1)NC(=O)[C@H](CC(C)C)NC(=O)[C@H](Cc1ccccc1)NC(=O)[C@H](CCC(=O)O)NC(=O)[C@H](C)NC(=O)[C@H](CC(C)C)NC(=O)[C@H](CCCNC(=N)N)NC(=O)[C@H](CCC(N)=O)NC(=O)[C@@H](NC(=O)[C@H](CCC(N)=O)NC(=O)[C@H](C)NC(=O)[C@@H](NC(=O)[C@H](CO)NC(=O)[C@H](CC(C)C)NC(=O)[C@H](Cc1c[nH]cn1)NC(=O)[C@H](CO)NC(=O)[C@H](C)NC(=O)CC[C@H](NC(=O)CC[C@H](NC(=O)CCCCCCCCCCCCCCCCC(=O)O)C(=O)O)C(=O)O)[C@@H](C)O)[C@@H](C)O)C(=O)N1CCC[C@H]1C(=O)N[C@@H](CO)C(=O)N[C@@H](CO)C(=O)N[C@H](C(=O)N[C@@H](CC(=O)O)C(=O)N[C@H](C(=O)NCC(=O)N1CCC[C@H]1C(=O)N[C@@H](CC(=O)O)C(=O)N[C@H](C(=O)N1CCC[C@H]1C(N)=O)[C@@H](C)O)C(C)C)[C@@H](C)O
